Target: NAD(P)+-dependent methanol dehydrogenase from Bacillus methanolicus MGA3 (Genbank EIJ77596.1, GI 387585261) (Bacillus methanolicus MGA3) (UniProt P31005)
Assay: cell-based or functional assay

Substance: activator protein from Bacillus methanolicus MGA3 (locus tag MGA3_09170, GI 387591061, Accession EIJ83380) (from UniProt Q8KP10 1-185) (enzyme)
- ratio of "act" to methanol dehydrogenase (in vitro activation test with 5 M methanol, 2 mM NAD, 10 uM methanol dehydrogenase 2315A, pH 7.4) (ratio act : methanol dehydrogenase): 10
